The series is described as follows: soluble fraction after stress (log2 fold change); higher = more stays soluble; pooled small domains, quantitative proteomics. To be noted: stress: 50 degC. In a few lines: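 The stress applied to every library was 50°C. These custom libraries of small protein domains were pooled and measured at high throughput with quantitative proteomics as the read-out. Aggregation propensity is expressed as the base-two logarithm of the fold change in how much of each protein remains soluble. The higher the value, the more of that protein stays in solution.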
For “HMGSALLEAGADDAGQRLDQWLAAKLGPSISRSRVQALIKQGAVLVGGKPAGEAKRKLVAGDVVSVALPEP”, the “soluble fraction (log2)” value came to 0.0853.

Regarding “HMEKERYDTGIGELNRVLGGGLVKGSLILISGDPGIGKSTLLLQTANNISKKYGKVLYVSGEESEEQIKIR”, the “soluble fraction (log2)” value is -0.319.

On to “HMFDMLGDQIKKYRKEKKMSQEELAIPLNVVRQTVSKWENNLSVPDAELLIRLAEVLEISVAELLGT”, for which the “soluble fraction (log2)” value was -0.108.

For the sequence “HMSAEDYMEMIYRLSQENGFTRVNDLASALNVQPPSVTRMIQKLAELNLIKYEKYGVIMLQPYGIEVGRSL”, the “soluble fraction (log2)” value is -1.91.

Regarding “HMIMPSDATEAKLLGVLGNEPLHVDEIRNQAELPIEKVSAALALMELKGMVRQVGGMNYVAVR”, the “soluble fraction (log2)” value is 0.117.

On to “HMTSLQDLLEELRVIRETLTGSQVLSDMQLFSQLRNLGDIKAALTRMQDNPAAARMVGEVDKLLETMFAS”, for which the “soluble fraction (log2)” value was -0.955.

As for “HMGSVDMVYGDHKINSEHMDLSFKNQTAVLYDKVNYKSSLSMLSADKILVNFLNKYTKIEMNDENNNILIQ”, the “soluble fraction (log2)” value amounted to 0.059.

Consider “HMYELDIYPNPAIDKINVLLPSSTTLPVKVEIYDIMGKKVNSLLTTKKAFTIETDQFEKGIYFVKA”, for which the “soluble fraction (log2)” value was 0.0213.

For the sequence “HMVSDAWITGKVKSQLLADDVTPGMKIDVDTEDRIVSLKGTVPSLTARNEAIRIASHTKGVRTVDADELIV”, the “soluble fraction (log2)” value was 0.118.

For “HMRWGDPLTVKVPSFIGQTKDDIAKQHYPFRIEWHGEGAKIGSQLPEVDSVIKQDGTIHLYLV”, the “soluble fraction (log2)” value is -0.104.

Take “HMDNVQLRNFAIKATEASIIYLDQEQRNFFWYNNNKKLMTVPFDENPYSAFAAYLKTDEGSEVYKAIEKKF”: the “soluble fraction (log2)” value is -1.68.

Regarding “HMKDDLTWSEGLMPNVVGMGLRDAMFMLENSGLRVNYSGRGKVTRQSPQPGVRIKRGATVAIELRL”, the “soluble fraction (log2)” value is -0.395.

Regarding “HMIVDYPSFVGKTKQELEKWAKENNIIIRYRQLSVTASDKVKAQLPATTTYKRIMKGSSIEVELEL”, the “soluble fraction (log2)” value was -0.776.

As for “HMYPNEFPRKVMSVFESSGLEMFRTIEMLLAIPEYETPLPYGSGVSRSDIFVLAKSAGNLVSITV”, the “soluble fraction (log2)” value was found to be 0.00886.

Regarding “HMKEQYTELDWDKVQVNDKVMIKDLNQQVTILSLPDKNNALYIQMGMIKTKVKKEKLAVYNPQLA”, the “soluble fraction (log2)” value is -0.185.

Turning to “HMEDKPITKEQKQAMFALLREHFSGDEGNAVYTAVLEREGLAPGDKIMSSVYDRLIDGINEAIRQKLEAGA”, the “soluble fraction (log2)” value turned out to be 0.00629.

Regarding “HMPHITDAEWEVMRVVWANHHVTSKEVISILEDKMNWKATTIKTLLGRLVEKGALSTEQDGKKFIYTAR”, the “soluble fraction (log2)” value was -1.5.

“HMHPEQTLEKIVDISAELFAKKGYEQTSIQDILDATGLSKGGLYHHFKSKEEILEAVMQKRVQY”: the “soluble fraction (log2)” value is 0.0883.

As for “HMINYYELLKLDMNAAHEEINDAIKLESEKNTIPEDQIRTMKSIFFNTEFKKEYDQRLMNFLLT”, the “soluble fraction (log2)” value was -0.319.

On to “HMKIEEIAYSTFISMLDKGEVSKVELKDNLIYIETKADDKTIYTTGRMEDPDLTNRLIEAGVDFTEIE”, for which the “soluble fraction (log2)” value was -0.317.

With “HMSALAEELIKKNQAMILTIKPRDTIWGIANRFQSPPSEKFINQIIELNQVDPYRLRIGQDLLIPLN”, the “soluble fraction (log2)” value was -0.584.

For “HMQNNKITIYISGAVNRPGIVTIESDKRLYDAVELLGGTTKEADLNGVNLSVRLEDEQHYIIPKIGEA”, the “soluble fraction (log2)” value is -0.0996.

With “HMTRQRQLIYNIIQRADDHPTAEMIYARAKAEMPSIAFGTVYRNLKLMVDAGEILHIPVAGEPDRYDK”, the “soluble fraction (log2)” value is -1.98.

For the sequence “HMLQFTYPRLHTKKSWYVDFMSFDPGAGKMRRKKFMLDGIPKITDRRKRAAELIEVLTKQLRAGWSPWVNV”, the “soluble fraction (log2)” value was -3.59.

Regarding “HMETGFADTLRKFRKEADMTQEKLAEALGVTTGAVYKWENGRSTPEVRLLVEMADLFGTSVDALLDYKVR”, the “soluble fraction (log2)” value is -0.622.

“HMTKSTSMDLGGFMIVEGSETVRLGGQILQKDVDYTIDYFSGKINFISEEALNPGAEISVSYEENQ”: the “soluble fraction (log2)” value was -0.187.

For “HMDPPVDLTPREQQVLSRIALGMSDKAIAAELGVSHQTVRNHVARIYAKIKVHSRSQAIVWAREKGIP”, the “soluble fraction (log2)” value is -0.185.

For “HMELDMTFGEKIQKLRKESGLSQEELSYQLGVSRQAISKWERDSGYPETEKIVRMSKIFDVTLDYLLNE”, the “soluble fraction (log2)” value is -0.458.

For “HMHGSSSTVPPVKGLSFEQARLTLAENDLTVEISDSIYDRNARPGTVVESWPRAGSVVKQGRQVYVTVTAF”, the “soluble fraction (log2)” value is -0.922.

Turning to “HMGGLENNLKQARNRVGLTQSELARQAGISRQAYSSLESGAANPSTEVALRLAQALSERVESLFYLPE”, the “soluble fraction (log2)” value was -0.0819.

On to “HMLPYKGTVAVSLAVLHKAVGVGTADMLKAVGTLRQGTEVTVTGRNGPFAQLKNGLWMKESFLE”, for which the “soluble fraction (log2)” value is -1.04.

As to “HMGSKKAIPYVSGMSETEAQNELEEAGFKVTSSFQYDDSVESGKVISTTPEAGTKAEKGSTVTMLVSQGSN”, the “soluble fraction (log2)” value was -0.114.

In the case of “HMQQELDAFKLLITVSGVGPKAAMAVLSVLPPDRLSIAVSSGDVKSIQSAQGVGKKTAERIVLELKDKM”, the “soluble fraction (log2)” value was -0.814.

As for “HMAHYPGKVNNELVEFIRSEQRKTPHMTLTGLNRKLQRTYDLTLSESTVRKLVEAETILPLAREPD”, the “soluble fraction (log2)” value is -0.0739.

On to “HMVRRSERLHALTESLRRSGNRGRTAEQLATEFEVSVRTIKRDLVALEASGLPLWSRPGPGGGYGLLS”, for which the “soluble fraction (log2)” value was -1.02.

Take “HMTSPVEDLLDKAIQLYREENFEEAIAKWEEVLALDPSKLEAKFNIEIAQDRIKEKQIQEDLKSS”: the “soluble fraction (log2)” value came to 0.0629.

As to “HMSIGPQMAGRRVLSGDLIARLEAFEGTVVLGRGVAREDALLIATQAGHVRWEPASRRLWVDSTA”, the “soluble fraction (log2)” value is -0.458.

“HMADTFVMPDLVYRRYEPVRGYFERGGFHMGAVKFEPYEGISDGTILRQNPLPGHPLRRRDVISLVVAAS”: the “soluble fraction (log2)” value is -2.23.

For the sequence “HMGRRRAAPQEPLRQFPASPVTGQPIKLLLGQYGPYVTDGTTNASLPKGSSPDELTFEQATQLLAERALRG”, the “soluble fraction (log2)” value came to 0.109.

As to “HMKVSVPDIMDNSSLRQAEAKLRALGFRVTEPEYISGEKDWVYSVTYKGRTLNAGDKVPHEALLTLHVGNG”, the “soluble fraction (log2)” value is -0.0697.

As to “HMSDRESYGRYRNVSLTLSEYESLKNEYPLYADKYIERLSEYMETAGKHYNNHYATILSWLSKDIK”, the “soluble fraction (log2)” value is -0.487.

“HMEVSYSLPRFHKGKNPYVDFYQVDPRTLRMRRKKFLLRGVRDAVLLEQRAADLVALLTERLHSGWNAWDD”: the “soluble fraction (log2)” value is -2.11.

Turning to “HMNTEEKILEKEFLMLYSELGLQPKNIYELMENTGLKYEKLVEMLLQLQLKGLVEQPSYNYYSRL”, the “soluble fraction (log2)” value is -1.02.

On to “HMPKRSKDEAELEFLEMLRDNQVDSTWSFGKIISQLGSTDPRYWMVDDDPLWKRQIFEKYLSNR”, for which the “soluble fraction (log2)” value was -0.292.

With “HMTPGPYETLKPAPLGSYIEPKIGFATAIEIARKEAVQLGIKTEAGGIWYGGDFPFYNVSFFDPDD”, the “soluble fraction (log2)” value is -0.615.

“HMTTTPTSQMVTELRSRGWTLRALAQRLGVGHASINRWANGVTPDRDLVAALRALVASGEVP”: the “soluble fraction (log2)” value is -0.216.

As for “HMTATVPDSEAGIRLDVYAAALLGVSRAGAQKYIESGAVRVNGLPAPKNRRLESGDVIEAVLPDPE”, the “soluble fraction (log2)” value was found to be 0.157.

On to “HMQVEYTRGELIQDLEGGKIVYAGISPSRETPTGEVNFILDSGLTRTLYVTDVSEIEQLLISYDIDPEVKK”, for which the “soluble fraction (log2)” value was -0.0036.

For “HMDEEVLVVQEGGERLDVFVAANAEGITRSFVQNLIKKGDVTVDGAPRKANYRLRSGQVVRFSLPEP”, the “soluble fraction (log2)” value was -0.328.

Consider “HMIKRDLAFSEFIAEVKAGQVREVTIKGNSISGNLNDGREFNTYAPNDPNLVKTLTDQGVLIRAIPLE”, for which the “soluble fraction (log2)” value was -0.0273.

Turning to “HMTKLPLLVELSRIIPTDTWVKKIKFSLGSVEFVGISKSASRLLPIVENSSYFHDTKFIGTIVT”, the “soluble fraction (log2)” value is -0.486.

For the sequence “HMLLRVGGLVKDGSVRTDNDLGIKFIIEDNLAEVSVLYNGILPDLFREGQGVIAEGKFIDNIFIANEIVA”, the “soluble fraction (log2)” value is -0.519.

Regarding “HMAHETIDVAALRVGMFVQLDLGWLSHPFPLSSFRISSEDQIATIRALGLKRVRWSSEQSDS”, the “soluble fraction (log2)” value is -4.29.

As for “HMKHSEAIELGKRMLSQALQDVSLVLKKIPEERLQAVAAELNLKTPDELFEKIGLGERLAALVARRLLP”, the “soluble fraction (log2)” value is -0.207.

On to “HMGAGFREAIPPALDGERIDRVVSLLAYVSRNRAAGALAAGSVSVDGEVVFQRSRRVREGEELVVTGFERE”, for which the “soluble fraction (log2)” value is -0.97.

As for “HMKVDRLVSMILILLEQQRVGAQELADRFEVSVRTIYRDMEAINQAGIPVRSTSGVGGGFEIM”, the “soluble fraction (log2)” value is -0.34.

In the case of “HMQRQGTVATQQTPLNIRSQPSLSAQVIGQAPKGATVAILGESGDWYQIRYQNITGYSSKQYI”, the “soluble fraction (log2)” value amounted to 0.145.

Take “HMGAATQADIARVQELLNRLGYDAGSPDGLMGPRTRDAILEYQLTEGLETTGTVTRETLASLEARL”: the “soluble fraction (log2)” value worked out at 0.0823.

With “HMGRKPATTIPLQVRNAVLDLYRTKYYGANFQHYTELLHEHEGIRISTSSVAKILEAEYILSPK”, the “soluble fraction (log2)” value is -1.69.

Take “HMATTIEAPMPGKILDVKVNPGQAVSYGQVVLTMEAMKMETEIVAPADGTVASVLVKSGDMVETGAALVSL”: the “soluble fraction (log2)” value came out at 0.0867.

Turning to “HMAGLELVVTREQAGRTVKSLLRGELGISTALMGRLKRTGTGLTVNGTRVFTNAVLREGDRLAVDLDAAE”, the “soluble fraction (log2)” value was -0.606.

For the sequence “HMQLPTNAAAILRYLSSGAVKGVGSATAVRIVEKFGEETLNILEQDPLRLAEIRGISRDKAKKIGEDFASQ”, the “soluble fraction (log2)” value is -0.201.

As to “HMPMTDYQLIRSNRRTIALQITRDARVVVRAPLYASEADIRRFVESHRAWIESHLDRQRARTD”, the “soluble fraction (log2)” value is -1.76.

In the case of “HMDPSWVPVFNNLRDAILSHQLLPGTRLAEDELSNIYGLGRTVIRSALGALTHEGLLTHIPNRGVHVAKP”, the “soluble fraction (log2)” value is -0.819.

“HMNKLSISALAETVSTKRKEKSMTQQDLSDATGINRALISRLEQKDFIPSIPQLEKLEEILGFELEEVF”: the “soluble fraction (log2)” value was -0.0428.

Turning to “HMRRVEDVRTALEHFAAARNTTPMAMTLDQRREAMRELAASGLLNLRRALSEVAQTLGVARSTVYTYLP”, the “soluble fraction (log2)” value was -0.84.

On to “HMNEPSSYGYAISVALDRNGLGTVKGGTLYPLLARLEQAAHVETRWEAGDGGPGRKYYTITDSGRS”, for which the “soluble fraction (log2)” value is -0.201.

Consider “HMEVTLTLKSFGTAKVAVIKAIQSITGLGLMDAKKLVDAAPSVIKEKISPSEAEQYKKTLVDAGAEVEI”, for which the “soluble fraction (log2)” value is -0.806.

The values are drawn from the domain aggregation screens of Martell et al. (2025).
